Source: patent US20200010571A1 (Janssen / Centocor, published 2020)
Residue numbers refer to the chain shown, from its start. Values joined by “and” are separate entries in the source; they are usually repeats but may differ in a detail not shown here. Equal entries are not always repeated. One block for each binder: values may come before it.

Columns and labels:
mouse IL-17A [1] = target: T1, mouse IL-17A (mouse, UniProt Q62386 26-158); assay: SPR (Biacore 3000)
T1 sequence: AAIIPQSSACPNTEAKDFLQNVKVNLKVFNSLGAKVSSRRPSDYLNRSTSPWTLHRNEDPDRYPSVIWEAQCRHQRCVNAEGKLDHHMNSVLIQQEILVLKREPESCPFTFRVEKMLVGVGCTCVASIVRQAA

rat IL-17A [2] = target: T2, rat IL-17A (rat, UniProt Q61453 18-150); assay: SPR (Biacore 3000)
T2 chain: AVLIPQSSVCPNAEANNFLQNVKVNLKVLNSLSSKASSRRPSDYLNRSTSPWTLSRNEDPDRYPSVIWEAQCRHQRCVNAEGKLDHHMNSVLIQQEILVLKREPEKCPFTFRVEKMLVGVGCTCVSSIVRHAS

cynomolgus IL-17A [3] = target: T3, cynomolgus IL-17A (cynomolgus, UniProt Q16552 24-155 (human entry), limits assumed); assay: SPR (Biacore 3000), mAb captured by anti-IgG Fc, antigen in solution, 1:1 Langmuir;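 also: run in PBS containing BSA and P20 at 25 °C, antigen injected at four dilutions, 3 min association, dissociation followed 20 min to 2 h, two independent experiments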
T3 construct: also called Cyno IL-17A
T3 chain: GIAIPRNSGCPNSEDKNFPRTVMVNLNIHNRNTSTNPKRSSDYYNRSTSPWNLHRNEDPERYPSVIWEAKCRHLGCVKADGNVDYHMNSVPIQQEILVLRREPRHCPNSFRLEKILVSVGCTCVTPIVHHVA

[4] = target: T4, human IL-17A (recombinant) (human, UniProt Q16552 24-155); assay: SPR (Biacore 3000), mAb captured by anti-IgG Fc, antigen in solution, 25 C, 1:1 Langmuir
T4 construct: Biotinylated in the IL-17RA ELISA; also called rhIL-17A

[5] = target: T5, rhTNF-α (recombinant human, soluble) (human, UniProt P01375 77-233); assay: cell-based or functional assay
[6] = target: T5, rhTNF-α (recombinant human, soluble); assay: cell-based or functional assay; remark: listed apart in the source
[7] = target: T5, rhTNF-α (recombinant human, soluble); assay: cell-based or functional assay; remark: listed apart in the source
[8] = target: protease-resistant form of human transmembrane TNF-α (lacks amino acids Val1 to Pro12) overexpressed by K2 … (human, UniProt P01375 1-233); assay: cell-based or functional assay
[9] = target: native (endogenous) human TNF-α (human, UniProt P01375 77-233); assay: cell-based or functional assay
cynomolgus TNF-α [10] = target: T6, cynomolgus TNF-α (cynomolgus, UniProt P79337 77-233); assay: cell-based or functional assay
[11] = target: T4, human IL-17A (recombinant); assay: cell-based or functional assay
[12] = target: T4, human IL-17A (recombinant); assay: cell-based or functional assay; remark: listed apart in the source
[13] = target: T7, recombinant human IL-17A/F heterodimer (human, UniProt Q16552 24-155; Q96PD4 31-163); assay: cell-based or functional assay
[14] = target: T7, recombinant human IL-17A/F heterodimer; assay: cell-based or functional assay; remark: listed apart in the source
cynomolgus IL-17A [15] = target: T3, cynomolgus IL-17A; assay: cell-based or functional assay
cynomolgus IL-17A [16] = target: T3, cynomolgus IL-17A; assay: cell-based or functional assay
recombinant human IL-17F = target: T8, recombinant human IL-17F (human, UniProt Q96PD4 31-163); assay: binding to rhIL-17A in the absence or presence of IL-17F
T8 sequence: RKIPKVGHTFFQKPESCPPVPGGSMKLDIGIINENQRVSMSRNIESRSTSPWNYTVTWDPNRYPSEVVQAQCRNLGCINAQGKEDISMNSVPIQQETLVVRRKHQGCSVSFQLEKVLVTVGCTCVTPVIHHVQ

mouse TNF-α = target: T9, mouse TNF-α (mouse, UniProt P06804 80-235); assay: SPR (Biacore 3000), mAb captured by anti-IgG Fc, antigen in solution
T9 sequence: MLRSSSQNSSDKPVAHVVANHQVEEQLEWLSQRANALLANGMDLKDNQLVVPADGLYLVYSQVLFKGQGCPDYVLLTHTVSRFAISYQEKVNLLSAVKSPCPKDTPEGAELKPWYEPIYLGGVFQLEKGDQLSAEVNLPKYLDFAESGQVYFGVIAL

rat TNF-α = target: T10, rat TNF-α (rat, UniProt P16599 80-235); assay: as above
T10 sequence: T9 sequence with V23A, V59I, N92S, V97I, I118M, Q131L, F144I, A145T

[17] = target: T4, human IL-17A (recombinant); assay: competition ELISA: biotinylated rhIL-17A binding to plate-coated rhIL-17RA-Fc
cynomolgus TNF-α [18] = target: T6, cynomolgus TNF-α; assay: SPR (Biacore 3000), mAb captured by anti-IgG Fc, antigen in solution, 1:1 Langmuir
mouse IL-17A [19] = target: T1, mouse IL-17A; assay: as above
rat IL-17A [20] = target: T2, rat IL-17A; assay: as above
[21] = target: T5, rhTNF-α (recombinant human, soluble); assay: SPR (Biacore 3000), mAb captured by anti-IgG Fc, antigen in solution, 25 C, 1:1 Langmuir
[22] = target: T4, human IL-17A (recombinant); assay: competition ELISA: biotinylated rhIL-17A binding to plate-coated rhIL-17RA-Fc; Experiment 2; 95% CI 0.1474-0.1920
[23] = target: T4, human IL-17A (recombinant); assay: competition ELISA: biotinylated rhIL-17A binding to plate-coated rhIL-17RA-Fc; Experiment 3; 95% CI 0.2433-0.2757
[24] = target: T4, human IL-17A (recombinant); assay: competition ELISA: biotinylated rhIL-17A binding to plate-coated rhIL-17RA-Fc; Experiment 1; 95% CI 0.09343-0.1160

- binding result (mouse IL-17A [1]): binds
- binding result (rat IL-17A [2]): binds
- Kd (cynomolgus IL-17A [3]): 28.6 pM
- koff (cynomolgus IL-17A [3]): 3.68e-05 s⁻¹
- kon (cynomolgus IL-17A [3]): 1.29e+06 M⁻¹ s⁻¹
- Kd [4]: 30.9 pM
- koff [4]: 4.79e-05 s⁻¹
- kon [4]: 1.55e+06 M⁻¹ s⁻¹
B1: mAb 6785 (original parental anti-IL-17A mAb) (antibody, V domains shown)
VH: QVQLLESGGGLVQPGGSLRLSCAASGFTFSSYAMSWVRQAPGKGLEWVSTISLTSGFTYYADSVKGRFTISRDNSKNTLYLQMNSLRAEDTAVYYCARQLTLDVWGQGTLVTVSS
VL: QSVLTQPPSVSVAPGQTARISCSGDNLGDKYANWYQQKPGQAPVLVIYDDIDRPSGIPERFSGSNSGNTATLTISGTQAEDEADYYCGSYDFFLGMIVFGGGTKLTVL

- IC50 (µg/mL); Inhibition of native IL-17A mediated GROα production by NHDF; Experiment 1 [11]: 0.081 µg/mL
- IC50 (µg/mL); Inhibition of native IL-17A mediated GROα production by NHDF; Experiment 2 [11]: 0.0648 µg/mL
- IC50 (µg/mL); Inhibition of native IL-17A mediated GROα production by NHDF; Experiment 3 [11]: 0.0508 µg/mL
- IC50 (µg/mL); Inhibition of native IL-17A mediated IL-6 production by NHDF; Experiment 1 [12]: 0.0501 µg/mL
- IC50 (µg/mL); Inhibition of native IL-17A mediated IL-6 production by NHDF; Experiment 2 [12]: 0.0445 µg/mL
- IC50 (µg/mL); Inhibition of native IL-17A mediated IL-6 production by NHDF; Experiment 3 [12]: 0.049 µg/mL
- IC50 (µg/mL); Inhibition of IL-17A/F mediated GROα production by NHDF; Experiment 1 [13]: 0.549 µg/mL
- IC50 (µg/mL); Inhibition of IL-17A/F mediated GROα production by NHDF; Experiment 2 [13]: 0.436 µg/mL
- IC50 (µg/mL); Inhibition of IL-17A/F mediated GROα production by NHDF; Experiment 3 [13]: 0.392 µg/mL
- IC50 (µg/mL); Inhibition of IL-17A/F mediated IL-6 production by NHDF; Experiment 1 [14]: 0.135 µg/mL
- IC50 (µg/mL); Inhibition of IL-17A/F mediated IL-6 production by NHDF; Experiment 2 [14]: 0.174 µg/mL
- IC50 (µg/mL); Inhibition of IL-17A/F mediated IL-6 production by NHDF; Experiment 3 [14]: 0.131 µg/mL
- IC50 (µg/mL); Inhibition of cyno IL-17A mediated GROα production by NHDF; Experiment 1 (cynomolgus IL-17A [15]): 0.299 µg/mL
- IC50 (µg/mL); Inhibition of cyno IL-17A mediated GROα production by NHDF; Experiment 2 (cynomolgus IL-17A [15]): 0.329 µg/mL
- IC50 (µg/mL); Inhibition of cyno IL-17A mediated GROα production by NHDF; Experiment 3 (cynomolgus IL-17A [15]): 0.137 µg/mL
- IC50 (µg/mL); Inhibition of cyno IL-17A mediated IL-6 production by NHDF; Experiment 2 (cynomolgus IL-17A [16]): 0.0784 µg/mL
- IC50 (µg/mL); Inhibition of cyno IL-17A mediated IL-6 production by NHDF; Experiment 3 (cynomolgus IL-17A [16]): 0.0583 µg/mL
- binding result (recombinant human IL-17F): no binding
- binding result (mouse TNF-α): no binding (tested: up to 100 nM)
- binding result (rat TNF-α): no binding (tested: up to 100 nM)
- fold IC50 against the parental anti-IL-17A antibodies mAb 4782 and mAb 7206 [17]: ~3 fold
- Kd (cynomolgus TNF-α [18]): 399 pM and 186 pM
- koff (cynomolgus TNF-α [18]): 0.000103 s⁻¹ and 0.000127 s⁻¹
- kon (cynomolgus TNF-α [18]): 259000 M⁻¹ s⁻¹ and 681000 M⁻¹ s⁻¹
- Kd (cynomolgus IL-17A [3]): 23.6 pM and 31.8 pM
- koff (cynomolgus IL-17A [3]): 3.66e-05 s⁻¹ and 4.57e-05 s⁻¹
- kon (cynomolgus IL-17A [3]): 1.55e+06 M⁻¹ s⁻¹ and 1.43e+06 M⁻¹ s⁻¹
- Kd (mouse IL-17A [19]): 997 pM
- koff (mouse IL-17A [19]): 0.00103 s⁻¹
- kon (mouse IL-17A [19]): 1.03e+06 M⁻¹ s⁻¹
- Kd (rat IL-17A [20]): 15400 pM
- koff (rat IL-17A [20]): 0.00316 s⁻¹
- kon (rat IL-17A [20]): 205000 M⁻¹ s⁻¹
- Kd [21]: 18.8 pM and 21.1 pM
- koff [21]: 3.81e-05 s⁻¹ and 3.63e-05 s⁻¹
- kon [21]: 2.02e+06 M⁻¹ s⁻¹ and 1.72e+06 M⁻¹ s⁻¹
- Kd [4]: 22 pM and 45.3 pM
- koff [4]: 4.15e-05 s⁻¹ and 3.99e-05 s⁻¹
- kon [4]: 1.88e+06 M⁻¹ s⁻¹ and 882000 M⁻¹ s⁻¹
- IC50 [22]: 0.168 µg/mL
- IC50 [23]: 0.259 µg/mL
- IC50 [24]: 0.104 µg/mL
B2: mAb 9762 (bispecific anti-TNF-α/IL-17A antibody, IgG1) (bispecific antibody)
heavy 1: not shown
light 1: not shown
heavy 2: not shown
light 2: QSVLTQPPSVSVAPGQTARISCSGDNLGDKYANWYQQKPGQAPVLVIYDDIDRPSGIPERFSGSNSGNTATLTISGTQAEDEADYYCGSYDFFLGMIVFGGGTKLTVLGQPKAAPSVTLFPPSSEELQANKATLVCLISDFYPGAVTVAWKADSSPVKAGVETTTPSKQSNNKYAASSYLSLTPEQWKSHRSYSCQVTHEGSTVEKTVAPTECS
- fold of IC50 against the parental anti-TNF-α antibodies mAb 9809 and mAb 6696; rhTNF-α-induced cytotoxicity in WEHI-164 cells [5]: ~3 fold
- IC50 (nM); WEHI-164 cells cytotoxicity mediated by soluble rhTNF-α; Experiment 1 [6]: 1.28 nM
- IC50 (nM); WEHI-164 cells cytotoxicity mediated by soluble rhTNF-α; Experiment 2 [6]: 2.07 nM
- IC50 (nM); WEHI-164 cells cytotoxicity mediated by soluble rhTNF-α; Experiment 3 [6]: 0.631 nM
- IC50 (nM); KYM-1D4 cells, cytotoxicity mediated by soluble rhTNF-α; Experiment 1 [7]: 0.152 nM
- IC50 (nM); KYM-1D4 cells, cytotoxicity mediated by soluble rhTNF-α; Experiment 2 [7]: 0.343 nM
- IC50 (nM); KYM-1D4 cells, cytotoxicity mediated by soluble rhTNF-α; Experiment 3 [7]: 0.169 nM
- IC50 (nM); KYM-1D4 cells, cytotoxicity mediated by membrane bound human TNF-α; Experiment 1 [8]: 0.82 nM
- IC50 (nM); KYM-1D4 cells, cytotoxicity mediated by membrane bound human TNF-α; Experiment 2 [8]: 0.966 nM
- IC50 (nM); KYM-1D4 cells, cytotoxicity mediated by membrane bound human TNF-α; Experiment 3 [8]: 0.425 nM
- IC50 (nM); KYM-1D4 cells, cytotoxicity mediated by endogenous soluble TNF-α; Experiment 1 [9]: 0.346 nM
- IC50 (nM); KYM-1D4 cells, cytotoxicity mediated by endogenous soluble TNF-α; Experiment 2 [9]: 0.327 nM
- IC50 (nM); KYM-1D4 cells, cytotoxicity mediated by endogenous soluble TNF-α; Experiment 3 [9]: 0.197 nM
- IC50 (nM); Inhibition of cyno TNF-α mediated cytotoxicity in WEHI-164 cells; Experiment 1 (cynomolgus TNF-α [10]): 4.42 nM
- IC50 (nM); Inhibition of cyno TNF-α mediated cytotoxicity in WEHI-164 cells; Experiment 2 (cynomolgus TNF-α [10]): 20.6 nM
- IC50 (nM); Inhibition of cyno TNF-α mediated cytotoxicity in WEHI-164 cells; Experiment 3 (cynomolgus TNF-α [10]): 9.29 nM
